Results: the nanobody polyreactivity screen of Harvey et al. (2022)

Experiment: yeast display, Sf9 membrane polyspecificity reagent, FACS + sequencing; frameworks hold sequencing errors
In short: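 Using colony PCR, genes from sorted yeast display clones were amplified, then sequenced on MiSeq at 2 × 250 and filtered by CDR length. The clones had been stained with 10% biotinylated, detergent-solubilized Sf9 membrane reagent for 1 hour at 4 °C and sorted by FACS into low and high (top ~1%) gates on anti-HA and streptavidin fluorescence. Polyreactivity labels come from the gate of origin.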

| Sequence | polyreactivity (PSR sort gate) |
| --- | --- |
| QVQLVESGGGLVQAGVSLRLSCAASGSTFSVNAMGWYRQAPGKERELVAAITYSGGSTYYADSVKGRFTISRDNAKNTVYLQMNSLKPEDTAVYYCAAEGGSALDDDYWGQGTQVTVSS | high polyreactivity |
| QVQLVESGGGLVQAGGSLRLSCAASGSNFYVYAMGWYRQAPGKERELVAAIRWSGGSTYYADSVKGRFTISRDNANYPVYLQMNSLKPEDTADYYCAADAHPDSVWYGEYDYWGQGTQLTVSS | low polyreactivity |
| QVQLVESGGGLVQAGGSLRLSCAASGRIFRFYAIGAYRQAPGKERELVAVISTGGSTNYADSVKGRFTISRDNAKNTVYLQMNSLKPEDTAVYYCAKRKQSWGPGYSYYSSQYSMDYWGQGTLVTVSS | high polyreactivity |
| QVQLVESGGGLVQAGGSLRLSSAASGSTFPVNARGCYRQAPGKERELVAAISSRGSSTYYADSVKGRFTISRDNAKNTVYLQMHSLNREDTAVYYCAAQQRFPRFYYWGEGTQVTVSS | high polyreactivity |
| QVQLVESGGGLGQAGGSLRLSCAASGRTFDNYAMGWYRQAPGKERELVARITDTGGSTYYADSVKGRFTISRVNAKNTVYLQMNSLKPEDTAVYYCAAVSYPFAWYWLYYYWGQGTQVTVSS | low polyreactivity |
| QVQLVETGGCLVQAGGSLRLSCAASGFTFRGYAMGWYRQAPGKERELVAAITAGGGSTSYADSVKGRFTISRDNAKNTVYLLMNSLKPEDTAVYYCAKDRYYGYFRSRSDYWGQGTQVTVSS | high polyreactivity |
| QVQLVESGGGLVQAGGSLRLSCAASGITFNVNAMGWYRQAPGKERELVARITTSGGSTSYADSVKGRFTISRDNAKNTVYLQMNSLKPEYTAVYYCAADRARYYSEYDYWGQGTQVTVSS | low polyreactivity |
| QVQLVESGGGLVQAGGSLRLSCAASGGIFLVNDMGWYRQAPGKERELVAAITSGGGTYYADSVKGRFTISRDNAKNTVYLQMNSLKPEDTAVYYCARDTYRQIVSNESYGYWGQGTQVTVSS | low polyreactivity |
| QVQLVESGGGLVQAGGSLRLSCAASGRIFDTNAMGWYRQAPGKEREFVAAISRSGGSTYYADSVKGRFTISRDNAKNTVYLQMNSLKPEDTAVYYCAARWYVLQPLGYDASRYGYWGQGTQVTVSS | high polyreactivity |
| QVQLVESGGGIVQAGGSLRLSCAASGGTFPRYAKGWYRQAPGKEREFVAAISGSGGSTYYADSVKGRFTISRDNAKNTVLLQMNSLKPEDTAVYYCNKVPVYTPSYYWGQGSQVTVSS | low polyreactivity |
| QVQLVESGGGLVQAGGSLRLSCAASGRIFKRNVMGWYRQAPGKERELVAAITLRGGSTYYADSVKGRFTISRDNAKNTVYLQMNSLKPEDTAVYYCAAVQGTYYWDDYWGQGTQVTVSS | low polyreactivity |
| QGQLVESGGGLVQAGGSLRFSCAASGSTFRSYALGGYRQAPGKEWELVAAISGDGSTNYADSVKGRFTISRDNAKNPVYLQMNSLKPEDTAVYYCAKDPGYPAPYYDYYYWGQGTKVTVSS | low polyreactivity |
| QVHLVESGGGLVQAGGSLRLSCAASGRTFDYNAMGWYRQATGKERELVAAIRFGGGSTYYADSVKGRFTISRDNAKNTVYLQMNSLKPEDTAVYYCNASPLWIGWEIVPVGSSHYDYWGQGTQVTVSS | low polyreactivity |
| QVQLVESGGGLVQAGGSLRLSCAASGFTFSGYAMGWYRQAPGKERELVASITGSGSSTYYADSVKGRFTISRDNAKNNVYLQMNSLKPEDTAVYYCNAQFIGGWWAIYDYWGQGTQVTVSS | high polyreactivity |
| QVQLVESGGGLVQAGGSLRLSCAASGGTFATYAMGWYRQAPGKERELVATIRSGGSTYYADSVKGRFTISRDNAKNTVYLQMNSLKPEDTAVYYCNARAYHKGFYRITYYYWGQGTQVTVSS | high polyreactivity |
| QVQLVESGGGLVQAGGSLRLSCAASGSTFYSNTMGWYRQAPGKERELVAAITRSGGSTYYADSVKGRFTISRDNAKNTVYLQMNSLKPEETAVYYCNTGYKTRALYWPYDYWGQGTLVTVSS | high polyreactivity |

| Sequence | polyreactivity (PSR sort gate) |
| --- | --- |
| QVQRVESGGGLVQAGGSLRLSCAASGRIFRGNAMGWYRQAPGKERELVAAITSSGDSTFYADSVKGRFTISRDNANNTVYLQMNSLKPEDTAVYYCNALVQGKEYYWGQGTQVTVSS | high polyreactivity |
| QVQLVESGGGLVQAGGSLRLSCAASGRIFPYYDMGWYRQAPGKEMELVATITWRGGITYYADSVKGRFTISRDNAKNTVYLQMNSLKPEDTAVYYCAVRKVYRSSFDYWGQGTQVTVSS | high polyreactivity |
| QVQLVESGGGLVQAGGSLRLSCAASGFTFARNGMGWYRQAPGKEREFVAAITRSGGRTYYADSVKGRFTISRDNAKNTVYLQMNSLKPEDTAVYYCAAGYRGIGMNYWGQGTQVTVSS | high polyreactivity |
| QVQLVESGGGLVQAGGSLRLSCAASGSIFTAYDKGWYRQAPGKVRDLVAAINVSAGTTYYADSVKGRFTISRDNAKNTVYLQMNSLKPEDTAVYYCATDRSPTPYTRENIYDYWGQGTQVTVSS | low polyreactivity |
| QVQLVESGGGLVQAGGSLRLSCAASRRIYGGNAMGLNRKAPGKERELVAAINSSGGRTYYADSVKGRFKISRDNAKNTVYLQMKSLKTEDTAVYYCAGRVGCNWYDYWGQGTQVPVSS | high polyreactivity |
| QVQLGESGGGLVQAGGSLRLSCAASGFTFYTYAMGLYRQAPGKERELVATISSGGRTNYADSVKGRFTISRDNAKNTVYLQMNSLKPEDPAVFYCNASPPTLEGYWGQGTQVTVSS | low polyreactivity |
| QVQLVESGGGLVQAGGSLRLSCAASGSTFLYYAMGWSRQAPGKERELVAVISWSGVSTYYADSVKGRFTISRDNAKNSVYLQMNSLKPEDTAVYYCYTGYHYIRSYGYWGQGTQVTVSS | low polyreactivity |
| QVQLVESGGGLVQAGGSLRLSCSASGIIMDPNAMGWYRQAPGKERELVAGITRSGVSTYYSDSVKGRFTISRDNAKNTVYLLMNSLKPEDTAVYYCAKDRIYGSKGEDEDYWGQGSQVTVSS | low polyreactivity |
| QVQLVESGGGLVQAGGRLRLSCAASGRTFYYYPMGWYRQAPGKERELVAAISWSGGSTYYADSVKGRCTISRDNAKNTVYLQLNSLKPDDTAVNYCNAVGSKGYRMDYWGQGTQVTVSA | high polyreactivity |
| QVQLVESGGGVVQAGGSLRLSCAASGITIEANAMGLYRQAPGKERELVAAIDRSGGSKYYADSVKGRFTISRDNAKNTVYLQMNSLKPEDTAVYYCAADGRASVGGLGDDYWGQGTQVTVSS | low polyreactivity |
| QVQVVESGGGLVQAGGSLRLSCAASGFIFWEYAMGWYRQAAVKECELVSAISTSGGSTYYADSVKGRFTISRDNAMNSVYLQKNCLKQEDTAVYYCATDVYSGPLLKYDYWGQGTKVTVSS | low polyreactivity |
| QVQLVESGGGLVQAGGSLRLSCAASGRTFNKNSMGWYRQAPGKERELVAAITTGGGTYYADSVKGRFTISRDNAKNTVYLQMNSLKPEDTAVYYCAARRRRWSGYWGQGTQVTVSS | high polyreactivity |
| QVQLVESGGGLVQAGGSLRLSCAASGSIFPAYAMGWYIQDHGKERELLAAITRGGRTNYADSVKGRFTISRDNAKNTVYLQMNSLKPEDTAVYYCAARGYYAYRFDYWGQGTQVTVSS | high polyreactivity |
| QDQHVESGGGLVQAGGSLRLSCAASGNTFIRNVMGWYRLAPGKERELVAGIRTGGSTFYADSVKGRFTISRDNAKNTVYLQMNSLKPEDTAVYYCKAEVGDEGNLPYVIRPMDYWGQGTQVTVSS | low polyreactivity |
| QVQLVESGGGLVQAGGSLRISCAASGRIFFTYVKGWYRQAPGKERELVATIRVSGGSTYYADSVKGRYTISRDNAKKTVYLQMNSLKPEDTAVYYCAASGAWWSLHYAGDFWGQGTQVTVSS | high polyreactivity |
| QVQLVESGGGLVQAGGSLRLSCAAAGFTFSVNAMGWYRQAPGKERELVAAISSRGSITYYADSVKGRFTISRDNAKNTVYLQMNSLKPEDTAVYYCNAYKYKSPGDYWGQGTQVTVSS | high polyreactivity |
